Data as given in the supplement of paper PMC6757056.
± gives the standard deviation of the averaged measurements.

B1: library; a variant is named by its letters at N, in order (parent)
chain: GCUGUCACCGAGAAACUGUGAAGUAUAUCUUAAACCUGGGCACUUAAAAGAUAUAUGGAGUUAGUAGUGCAACCUGCUCGGUCUGAUGAGUCCNNNNNNGGACGAAACAGC

Tests used:
cyclic di-GMP [1] = variants of: B1; assay: normalized RNA/DNA level without ligand (relative to sTRSVctl = 100) (log10 (% of sTRSVctl)); HEK293T; ligand: cyclic di-GMP (c-di-GMP-II aptamer); higher = less ribozyme self-cleavage, higher mRNA level; details: reporter: mCherry (pCS4076), ligand present: no
Outline: (§1)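 Library plasmids carrying ribozyme switches linked to mCherry, or to eGFP in some ligand experiments, were transfected into HEK293T at 4 µg per 6-well well, with any ligand added 1 h earlier. Seventy-two hours on, total RNA was extracted with EDTA and reverse-transcribed, amplified, barcoded and sequenced. RNA level was RNA over DNA reads normalized to a spiked-in non-cleaving sequence or to the top sequences, then scaled and log-transformed. The top set was 25 sequences, the transform was ×100 and log10, and sequences needed ≥100 DNA reads.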

cyclic di-GMP [2] = variants of: B1; assay: normalized RNA/DNA level with ligand (relative to sTRSVctl = 100) (log10 (% of sTRSVctl)); HEK293T; ligand: cyclic di-GMP (c-di-GMP-II aptamer); ligand concentration (+) RNA-Seq: 1 mM; higher = less ribozyme self-cleavage, higher mRNA level; details: reporter: mCherry (pCS4076), ligand present: yes
Outline: as §1

Row | Variant | normalized RNA/DNA level without ligand (log10) (cyclic di-GMP [1]) | normalized RNA/DNA level with ligand (log10) (cyclic di-GMP [2])
1 | GCUGUCACCGAGAAACUGUGAAGUAUAUCUUAAACCUGGGCACUUAAAAGAUAUAUGGAGUUAGUAGUGCAACCUGCUCGGUCUGAUGAGUCCGCUAAGGGACGAAACAGC | 1.49 ± 0.032 | 1.71 ± 0.1
2 | GCUGUCACCGAGAAACUGUGAAGUAUAUCUUAAACCUGGGCACUUAAAAGAUAUAUGGAGUUAGUAGUGCAACCUGCUCGGUCUGAUGAGUCCAUAUGCGGACGAAACAGC | 1.67 ± 0.021 | 1.83 ± 0.13
3 | GCUGUCACCGAGAAACUGUGAAGUAUAUCUUAAACCUGGGCACUUAAAAGAUAUAUGGAGUUAGUAGUGCAACCUGCUCGGUCUGAUGAGUCCGAGAAAGGACGAAACAGC | 1.6011 ± 0.00083 | 1.72 ± 0.1
4 | GCUGUCACCGAGAAACUGUGAAGUAUAUCUUAAACCUGGGCACUUAAAAGAUAUAUGGAGUUAGUAGUGCAACCUGCUCGGUCUGAUGAGUCCUACGAGGGACGAAACAGC | 1.674 ± 0.0019 | 1.82 ± 0.1
5 | GCUGUCACCGAGAAACUGUGAAGUAUAUCUUAAACCUGGGCACUUAAAAGAUAUAUGGAGUUAGUAGUGCAACCUGCUCGGUCUGAUGAGUCCCUAUAUGGACGAAACAGC | 1.64 ± 0.035 | 1.77 ± 0.13
6 | GCUGUCACCGAGAAACUGUGAAGUAUAUCUUAAACCUGGGCACUUAAAAGAUAUAUGGAGUUAGUAGUGCAACCUGCUCGGUCUGAUGAGUCCCUUAUCGGACGAAACAGC | 1.73 ± 0.088 | 1.87 ± 0.14
7 | GCUGUCACCGAGAAACUGUGAAGUAUAUCUUAAACCUGGGCACUUAAAAGAUAUAUGGAGUUAGUAGUGCAACCUGCUCGGUCUGAUGAGUCCUGCAACGGACGAAACAGC | 1.728 ± 0.0076 | 1.87 ± 0.099
8 | GCUGUCACCGAGAAACUGUGAAGUAUAUCUUAAACCUGGGCACUUAAAAGAUAUAUGGAGUUAGUAGUGCAACCUGCUCGGUCUGAUGAGUCCAAACCCGGACGAAACAGC | 1.718 ± 0.0046 | 1.86 ± 0.09
9 | GCUGUCACCGAGAAACUGUGAAGUAUAUCUUAAACCUGGGCACUUAAAAGAUAUAUGGAGUUAGUAGUGCAACCUGCUCGGUCUGAUGAGUCCACCUCUGGACGAAACAGC | 1.716 ± 0.0081 | 1.87 ± 0.1
10 | GCUGUCACCGAGAAACUGUGAAGUAUAUCUUAAACCUGGGCACUUAAAAGAUAUAUGGAGUUAGUAGUGCAACCUGCUCGGUCUGAUGAGUCCGAACAUGGACGAAACAGC | 1.64 ± 0.033 | 1.78 ± 0.097
11 | GCUGUCACCGAGAAACUGUGAAGUAUAUCUUAAACCUGGGCACUUAAAAGAUAUAUGGAGUUAGUAGUGCAACCUGCUCGGUCUGAUGAGUCCGGUACGGGACGAAACAGC | 1.661 ± 0.0037 | 1.821 ± 0.013
12 | GCUGUCACCGAGAAACUGUGAAGUAUAUCUUAAACCUGGGCACUUAAAAGAUAUAUGGAGUUAGUAGUGCAACCUGCUCGGUCUGAUGAGUCCCGGGCAGGACGAAACAGC | 1.81 ± 0.064 | 1.9 ± 0.13
13 | GCUGUCACCGAGAAACUGUGAAGUAUAUCUUAAACCUGGGCACUUAAAAGAUAUAUGGAGUUAGUAGUGCAACCUGCUCGGUCUGAUGAGUCCCGGAGAGGACGAAACAGC | 1.32 ± 0.11 | 1.55 ± 0.13
14 | GCUGUCACCGAGAAACUGUGAAGUAUAUCUUAAACCUGGGCACUUAAAAGAUAUAUGGAGUUAGUAGUGCAACCUGCUCGGUCUGAUGAGUCCAAGUCGGGACGAAACAGC | 1.62 ± 0.031 | 1.79 ± 0.089
15 | GCUGUCACCGAGAAACUGUGAAGUAUAUCUUAAACCUGGGCACUUAAAAGAUAUAUGGAGUUAGUAGUGCAACCUGCUCGGUCUGAUGAGUCCCCCUGAGGACGAAACAGC | 1.61 ± 0.068 | 1.82 ± 0.068
16 | GCUGUCACCGAGAAACUGUGAAGUAUAUCUUAAACCUGGGCACUUAAAAGAUAUAUGGAGUUAGUAGUGCAACCUGCUCGGUCUGAUGAGUCCUAUUUGGGACGAAACAGC | 1.732 ± 0.0073 | 1.86 ± 0.1
17 | GCUGUCACCGAGAAACUGUGAAGUAUAUCUUAAACCUGGGCACUUAAAAGAUAUAUGGAGUUAGUAGUGCAACCUGCUCGGUCUGAUGAGUCCUCACCUGGACGAAACAGC | 1.7414 ± 0.00048 | 1.89 ± 0.12
18 | GCUGUCACCGAGAAACUGUGAAGUAUAUCUUAAACCUGGGCACUUAAAAGAUAUAUGGAGUUAGUAGUGCAACCUGCUCGGUCUGAUGAGUCCUUUGCGGGACGAAACAGC | 1.78 ± 0.066 | 1.88 ± 0.12
19 | GCUGUCACCGAGAAACUGUGAAGUAUAUCUUAAACCUGGGCACUUAAAAGAUAUAUGGAGUUAGUAGUGCAACCUGCUCGGUCUGAUGAGUCCUUGCGGGGACGAAACAGC | 1.84 ± 0.045 | 1.94 ± 0.04
20 | GCUGUCACCGAGAAACUGUGAAGUAUAUCUUAAACCUGGGCACUUAAAAGAUAUAUGGAGUUAGUAGUGCAACCUGCUCGGUCUGAUGAGUCCACUGACGGACGAAACAGC | 1.611 ± 0.012 | 1.77 ± 0.12
21 | GCUGUCACCGAGAAACUGUGAAGUAUAUCUUAAACCUGGGCACUUAAAAGAUAUAUGGAGUUAGUAGUGCAACCUGCUCGGUCUGAUGAGUCCAUGUCGGGACGAAACAGC | 1.64 ± 0.035 | 1.76 ± 0.087
22 | GCUGUCACCGAGAAACUGUGAAGUAUAUCUUAAACCUGGGCACUUAAAAGAUAUAUGGAGUUAGUAGUGCAACCUGCUCGGUCUGAUGAGUCCAGCGCUGGACGAAACAGC | 1.7 ± 0.044 | 1.82 ± 0.17
23 | GCUGUCACCGAGAAACUGUGAAGUAUAUCUUAAACCUGGGCACUUAAAAGAUAUAUGGAGUUAGUAGUGCAACCUGCUCGGUCUGAUGAGUCCUUGGACGGACGAAACAGC | 1.665 ± 0.0078 | 1.78 ± 0.08
24 | GCUGUCACCGAGAAACUGUGAAGUAUAUCUUAAACCUGGGCACUUAAAAGAUAUAUGGAGUUAGUAGUGCAACCUGCUCGGUCUGAUGAGUCCUGCAUUGGACGAAACAGC | 1.713 ± 0.0057 | 1.84 ± 0.056
25 | GCUGUCACCGAGAAACUGUGAAGUAUAUCUUAAACCUGGGCACUUAAAAGAUAUAUGGAGUUAGUAGUGCAACCUGCUCGGUCUGAUGAGUCCUAUCAUGGACGAAACAGC | 1.656 ± 0.0018 | 1.81 ± 0.12
26 | GCUGUCACCGAGAAACUGUGAAGUAUAUCUUAAACCUGGGCACUUAAAAGAUAUAUGGAGUUAGUAGUGCAACCUGCUCGGUCUGAUGAGUCCGGCUAAGGACGAAACAGC | 1.55 ± 0.09 | 1.71 ± 0.14
